# Reference: the RNAGym collection of RNA variant scans (doi:10.1021/acssynbio.7b00057)
# B1: Pistol ribozyme (parent)
# chain: GGGUCGUUGUUCCAUAAUCGCGUGGAUAUGGCACGCAAGUUUCUACCGGGCACCGUAAAUGUCCGACUGGAGCCGUUCGGGCGGCUAUAAACAGACCUCAGGCCCGAAGCGUGGCGGCACCUGCCGCCGGUGGUAAAAAAGAUCGGAAGAGCACACGUCU
# Variants of: B1
# Assay: aptazyme ON/OFF ratio, guanine; higher = stronger switching; co-transcriptional cleavage with and without guanine
row,Variant,aptazyme ON/OFF ratio
1,U7C U8C G9U U10A C12U C13U,1.19
2,U7C U8C G9C U10G C12U C13U,1.08
3,U7C U8C G9C U10G C12U C13G,1.09
4,U7C U8C G9C U10G C12U C13A,1.08
5,U7C U8C G9U U10A U11A,2.27
6,U7C U8C G9C U10C U11G C13A,1.33
7,U7C U8C G9C U10C U11G C13U,1.21
8,U7C U8C G9C U10C U11G C13G,1.19
9,U7C U8C G9C U11G C12G,1.11
10,U7C U8C G9C U11G C12U,1.12
11,U7C U8C G9C U11G C12A,1.22
12,U7C U8C G9C U10C U11G C12G C13A,1.08
13,U7C U8C G9C U10C U11G C12G C13G,1.12
14,U7C U8C G9C U10C U11G C12G C13U,1.11
15,U7C U8C G9C U10G U11C,1.5
16,U7C U8C G9C U10G U11G,1.09
17,U7C U8C G9C U10G U11A,1.3
18,U7C U8C G9U,2.34
19,U7C U8C G9C U11C C13A,1.28
20,U7C U8C G9C U11C C13U,1.24
21,U7C U8C G9C U11C C13G,1.04

row,Variant,aptazyme ON/OFF ratio
1,U7C U8C G9C U10G U11A C12U C13G,1.07
2,U7C U8C G9C U10G U11A C12U C13A,1.07
3,U7C U8C G9C U10G U11A C12U C13U,1.09
4,U7C U8C G9C U10C U11G C12A C13G,1.04
5,U7C U8C G9C U10C U11G C12A C13U,1.09
6,U7C U8C G9C U10C U11G C12A C13A,1.08
7,U7C U8C G9C U11G C12U C13U,1.1
8,U7C U8C G9C U11G C12U C13A,1.06
9,U7C U8C G9C U11G C12U C13G,1.07
10,U7C U8C G9C U10G U11A C13U,1.09
11,U7C U8C G9C U10G U11A C13G,1.08
12,U7C U8C G9C U10G U11A C13A,1.14
13,U7C U8C G9C U11G C12A C13G,1.1
14,U7C U8C G9C U11G C12A C13A,1.13
15,U7C U8C G9C U11G C12A C13U,1.09
16,U7C U8C G9C U11A C12A C13A,1.1
17,U7C U8C G9C U11A C12A C13G,1.14
18,U7C U8C G9C U11A C12A C13U,1.13
19,U7C U8C G9U C12A C13A,1.05
20,U7C U8C G9U C12A C13U,1.22
21,U7C U8C G9U C12A C13G,1.1

row,Variant,aptazyme ON/OFF ratio
1,U7C U8C G9C U10G U11A C12G C13A,1.05
2,U7C U8C G9C U10G U11A C12G C13U,1.08
3,U7C U8C G9C U10G U11A C12G C13G,1.11
4,U7C U8C G9C U11A C12G C13A,1.07
5,U7C U8C G9C U11A C12G C13G,1.07
6,U7C U8C G9C U11A C12G C13U,1.03
7,U7C U8C G9U U10A C12A C13U,1.2
8,U7C U8C G9U U10A C12A C13A,1.2
9,U7C U8C G9U U10A C12A C13G,1.07
10,U7C U8C G9U U10A C12A,1.22
11,U7C U8C G9U U10A C12G,1.22
12,U7C U8C G9U U10A C12U,1.17
13,U7C U8C G9C U11C C12A C13A,1.16
14,U7C U8C G9C U11C C12A C13U,1.18
15,U7C U8C G9C U11C C12A C13G,1.04
16,U7C U8C G9C U10G U11G C12A C13G,1.07
17,U7C U8C G9C U10G U11G C12A C13U,1.09
18,U7C U8C G9C U10G U11G C12A C13A,1.08
19,U7C U8C G9C U10G C12A C13A,1.1
20,U7C U8C G9C U10G C12A C13U,1.1
21,U7C U8C G9C U10G C12A C13G,1.06

row,Variant,aptazyme ON/OFF ratio
1,U7C U8C G9U U10A C12G C13A,1.16
2,U7C U8C G9U U10A C12G C13U,1.08
3,U7C U8C G9U U10A C12G C13G,1.12
4,U7C U8C G9C U10G U11A C12A C13A,1.16
5,U7C U8C G9C U10G U11A C12A C13U,1.11
6,U7C U8C G9C U10G U11A C12A C13G,1.11
7,U7C U8C G9U C12U,1.61
8,U7C U8C G9U C12G,1.29
9,U7C U8C G9U C12A,1.36
10,U7C U8C G9C U10G U11G C12A,1.11
11,U7C U8C G9C U10G U11G C12G,1.14
12,U7C U8C G9C U10G U11G C12U,1.11
13,U7C U8C G9C U10G U11G C13U,1.1
14,U7C U8C G9C U10G U11G C13G,1.08
15,U7C U8C G9C U10G U11G C13A,1.06
16,U7C U8C G9C U11G C12G C13U,1.1
17,U7C U8C G9C U11G C12G C13A,1.1
18,U7C U8C G9C U11G C12G C13G,1.11
19,U7C U8C G9U C13U,1.23
20,U7C U8C G9U C13G,1.03
21,U7C U8C G9U C13A,1.02
